Reference: PMC8618245, “Mechanisms of CP190 Interaction with Architectural Proteins in Drosophila Melanogaster” (International Journal of Molecular Sciences, 2021)

T1: 6×His-Thioredoxin-fused CP190 1–126 (BTB domain) (Drosophila melanogaster), Q24478
T1 chain: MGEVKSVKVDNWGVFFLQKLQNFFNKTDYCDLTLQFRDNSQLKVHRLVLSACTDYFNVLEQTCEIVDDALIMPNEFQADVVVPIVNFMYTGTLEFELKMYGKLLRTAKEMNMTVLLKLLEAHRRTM

B1: 6×His-Thioredoxin-fused CP190 1–126 L118A (domain or fragment, Drosophila melanogaster, UniProt Q24478 1-126, looked up)
chain: MGEVKSVKVDNWGVFFLQKLQNFFNKTDYCDLTLQFRDNSQLKVHRLVLSACTDYFNVLEQTCEIVDDALIMPNEFQADVVVPIVNFMYTGTLEFELKMYGKLLRTAKEMNMTVLLKALEAHRRTM
notes: CP190, Drosophila melanogaster, residues 1–126 (BTB domain); also called BTB^L118A; source: E. coli BL21, co-expressed with the GST fusion, in lysate (pull-down); bacterial expression (cross-linking)
B2: 6×His-Thioredoxin-fused CP190 1–126 V7A (domain or fragment, Drosophila melanogaster, UniProt Q24478 1-126, looked up)
chain: MGEVKSAKVDNWGVFFLQKLQNFFNKTDYCDLTLQFRDNSQLKVHRLVLSACTDYFNVLEQTCEIVDDALIMPNEFQADVVVPIVNFMYTGTLEFELKMYGKLLRTAKEMNMTVLLKLLEAHRRTM
notes: CP190, Drosophila melanogaster, residues 1–126 (BTB domain); also called BTB^V7A; source: E. coli BL21, co-expressed with the GST fusion, in lysate (pull-down); bacterial expression (cross-linking)
B3: 6×His-Thioredoxin-fused CP190 1–126 K19A (domain or fragment, Drosophila melanogaster, UniProt Q24478 1-126, looked up)
chain: MGEVKSVKVDNWGVFFLQALQNFFNKTDYCDLTLQFRDNSQLKVHRLVLSACTDYFNVLEQTCEIVDDALIMPNEFQADVVVPIVNFMYTGTLEFELKMYGKLLRTAKEMNMTVLLKLLEAHRRTM
notes: CP190, Drosophila melanogaster, residues 1–126 (BTB domain); source: E. coli BL21, co-expressed with the GST fusion, in lysate (pull-down); bacterial expression (cross-linking)
B4: 6×His-Thioredoxin-fused CP190 1–126 F15A (domain or fragment, Drosophila melanogaster, UniProt Q24478 1-126, looked up)
chain: MGEVKSVKVDNWGVAFLQKLQNFFNKTDYCDLTLQFRDNSQLKVHRLVLSACTDYFNVLEQTCEIVDDALIMPNEFQADVVVPIVNFMYTGTLEFELKMYGKLLRTAKEMNMTVLLKLLEAHRRTM
notes: as for B3
B5: 6×His-Thioredoxin-fused CP190 1–126 V114N (domain or fragment, Drosophila melanogaster, UniProt Q24478 1-126, looked up)
chain: MGEVKSVKVDNWGVFFLQKLQNFFNKTDYCDLTLQFRDNSQLKVHRLVLSACTDYFNVLEQTCEIVDDALIMPNEFQADVVVPIVNFMYTGTLEFELKMYGKLLRTAKEMNMTNLLKLLEAHRRTM
notes: as for B3
B6: 6×His-Thioredoxin-fused CP190 1–126 V114A (domain or fragment, Drosophila melanogaster, UniProt Q24478 1-126, looked up)
chain: MGEVKSVKVDNWGVFFLQKLQNFFNKTDYCDLTLQFRDNSQLKVHRLVLSACTDYFNVLEQTCEIVDDALIMPNEFQADVVVPIVNFMYTGTLEFELKMYGKLLRTAKEMNMTALLKLLEAHRRTM
notes: as for B3
B7: 6×His-Thioredoxin-fused CP190 1–126 K117S (domain or fragment, Drosophila melanogaster, UniProt Q24478 1-126, looked up)
chain: MGEVKSVKVDNWGVFFLQKLQNFFNKTDYCDLTLQFRDNSQLKVHRLVLSACTDYFNVLEQTCEIVDDALIMPNEFQADVVVPIVNFMYTGTLEFELKMYGKLLRTAKEMNMTVLLSLLEAHRRTM
notes: as for B3
B8: 6×His-Thioredoxin-fused CP190 1–126 (BTB domain), Q24478 1-126 (domain or fragment)
chain: MGEVKSVKVDNWGVFFLQKLQNFFNKTDYCDLTLQFRDNSQLKVHRLVLSACTDYFNVLEQTCEIVDDALIMPNEFQADVVVPIVNFMYTGTLEFELKMYGKLLRTAKEMNMTVLLKLLEAHRRTM

Target: the molecule itself
Experiment: cross-linking; glutaraldehyde, thioredoxin-fused BTB domains at 5 μM, 10 min at room temperature, 20 mM HEPES pH 7.7, 150 mM NaCl, 20 mM imidazole, 1 mM β-mercaptoethanol; SDS-PAGE, silver staining
Details: not given

Stoichiometry N, 2:
B1
B2
B3
B4
B5
B6
B7

Target: T1, 6×His-Thioredoxin-fused CP190 1–126 …
Experiment: as above
Details: remark: other sources report otherwise

Stoichiometry N, 2:
B8
